Experimental data reported in patent publication US20220025021A1 (BETH ISRAEL DEACONESS MEDICAL CENTER, published 2022).
Residue numbers refer to the chain shown, from its start.

B1: MS-93 (antibody)
VH: not shown
VL: DIVLTQSPLSLSVTPGESASISCKSSHSLIHGDRNNYLAWYVQKPGRSPQLLIYLASSRASGVPDRFSGSGSDKDFTLKISRVETEDVGTYYCMQGRESPWTFGQGTKVDIKRTVAAPSVFIFPPSDEQLKSGTASVVCLLNNFYPREAKVQWKVDNALQSGNSQESVTEQDSKDSTYSLSSTLTLSKADYEKHKVYACEVTHQGLSSPVTKSFNRGEC
B2: MS-106 (antibody)
VH: not shown
VL: B1 VL with L9H, S18P, D73G
B3: MS-108 (antibody)
VH: not shown
VL: B1 VL with L9H, D73G, T85A
B4: MS-109 (antibody)
VH: not shown
VL: B1 VL with I2F, S18P, D73G
B5: MS-110 (antibody)
VH: not shown
VL: B1 VL with I2F, S18P, T85A
B6: MS-96 (antibody)
VH: not shown
VL: B1 VL with L9H, T85A
B7: MS-107 (antibody)
VH: not shown
VL: B1 VL with L9H, S18P, T85A
B8: MS-95 (antibody)
VH: not shown
VL: B1 VL with L9H, D73G
B9: MS-98 (antibody)
VH: not shown
VL: B1 VL with I2F, D73G
B10: MS-94 (antibody)
VH: not shown
VL: B1 VL with L9H, S18P
B11: MS-97 (antibody)
VH: not shown
VL: B1 VL with I2F, S18P
B12: MS-111 (antibody)
VH: not shown
VL: B1 VL with I2F, D73G, T85A

Assays:
Experiment in all cases: cell-based or functional assay
[1] = biological target: HIV-1 pseudovirus 263-8 (envelope glycoprotein) (HIV-1)
[2] = biological target: HIV-1 pseudovirus SC05.8C11.2344 (envelope glycoprotein) (HIV-1)
[3] = biological target: HIV-1 pseudovirus X1193_c1 (envelope glycoprotein) (HIV-1)
[4] = biological target: HIV-1 pseudovirus Ce1176_A3 (envelope glycoprotein) (HIV-1)
[5] = biological target: HIV-1 pseudovirus AC10.0.29 (envelope glycoprotein) (HIV-1)
[6] = biological target: HIV-1 pseudovirus 6952.v1.c20 (envelope glycoprotein) (HIV-1)
[7] = biological target: HIV-1 envelope glycoprotein of pseudovirus SC422661.8 (HIV-1)
[8] = biological target: HIV-1 envelope glycoprotein of pseudovirus RHPA4259.7 (HIV-1)
[9] = biological target: HIV-1 envelope glycoprotein of pseudovirus DU172.17 (HIV-1)
[10] = biological target: HIV-1 envelope glycoprotein of pseudovirus BB1012-11.TC21 (HIV-1)
[11] = biological target: HIV-1 envelope glycoprotein of pseudovirus CNE52 (HIV-1)
[12] = biological target: HIV-1 envelope glycoprotein of pseudovirus 0260.v5.c36 (HIV-1)

| Binder | neutralization IC50 [1] [µg/mL] | neutralization IC80 [1] [µg/mL] | neutralization IC50 [2] [µg/mL] | neutralization IC80 [2] [µg/mL] | neutralization IC50 [3] [µg/mL] | neutralization IC80 [3] [µg/mL] | neutralization IC50 [4] [µg/mL] | neutralization IC80 [4] [µg/mL] | neutralization IC50 [5] [µg/mL] | neutralization IC80 [5] [µg/mL] | neutralization IC50 [6] [µg/mL] | neutralization IC80 [6] [µg/mL] | IC50 (neutralization in TZM.bl cells) [7] [µg/mL] | IC80 (neutralization in TZM.bl cells) [7] [µg/mL] | IC50 (neutralization in TZM.bl cells) [8] [µg/mL] | IC80 (neutralization in TZM.bl cells) [8] [µg/mL] | IC50 (neutralization in TZM.bl cells) [9] [µg/mL] | IC80 (neutralization in TZM.bl cells) [9] [µg/mL] | IC50 (neutralization in TZM.bl cells) [10] [µg/mL] | IC80 (neutralization in TZM.bl cells) [10] [µg/mL] | also measured |
| --- | --- | --- | --- | --- | --- | --- | --- | --- | --- | --- | --- | --- | --- | --- | --- | --- | --- | --- | --- | --- | --- |
| B1 | 0.018 | 0.065 | 0.749 | 2.48 | 0.088 | 0.543 | 0.239 | 5.33 | 0.058 | 0.301 | 0.259 | 4.31 |  |  |  |  |  |  |  |  |  |
| B2 |  |  |  |  |  |  |  |  |  |  |  |  | 0.201 | 1.07 | 0.143 | 0.72 | 1.49 | 8.04 | 0.031 | 0.132 | IC50 (neutralization in TZM.bl cells) [11]: 0.42 µg/mL; IC80 (neutralization in TZM.bl cells) [11]: 4.31 µg/mL; IC50 (neutralization in TZM.bl cells) [12]: 0.018 µg/mL; IC80 (neutralization in TZM.bl cells) [12]: 0.066 µg/mL |
| B3 |  |  |  |  |  |  |  |  |  |  |  |  | 0.148 | 1.25 | 0.178 | 1.1 | 1.71 | 13.6 | 0.027 | 0.11 | IC50 (neutralization in TZM.bl cells) [11]: 0.265 µg/mL; IC80 (neutralization in TZM.bl cells) [11]: 3.5 µg/mL; IC50 (neutralization in TZM.bl cells) [12]: 0.028 µg/mL; IC80 (neutralization in TZM.bl cells) [12]: 0.088 µg/mL |
| B4 |  |  |  |  |  |  |  |  |  |  |  |  | 0.233 | 1.75 | 0.182 | 0.794 | 1.14 | 8.76 | 0.021 | 0.087 | IC50 (neutralization in TZM.bl cells) [11]: 0.206 µg/mL; IC80 (neutralization in TZM.bl cells) [11]: 1.95 µg/mL; IC50 (neutralization in TZM.bl cells) [12]: 0.027 µg/mL; IC80 (neutralization in TZM.bl cells) [12]: 0.089 µg/mL |
| B5 |  |  |  |  |  |  |  |  |  |  |  |  | 0.243 | 1.19 | 0.18 | 0.817 | 0.847 | 7.3 | 0.033 | 0.104 | IC50 (neutralization in TZM.bl cells) [11]: 0.21 µg/mL; IC80 (neutralization in TZM.bl cells) [11]: 1.31 µg/mL; IC50 (neutralization in TZM.bl cells) [12]: 0.026 µg/mL; IC80 (neutralization in TZM.bl cells) [12]: 0.088 µg/mL |
| B6 | 0.018 | 0.064 | 1.07 | 3.4 | 0.113 | 0.677 | 0.248 | 5.85 | 0.064 | 0.253 | 0.558 | 8.56 |  |  |  |  |  |  |  |  |  |
| B7 |  |  |  |  |  |  |  |  |  |  |  |  | 0.362 | 2.07 | 0.219 | 0.949 | 2.58 | 13.9 | 0.035 | 0.111 | IC50 (neutralization in TZM.bl cells) [11]: 0.389 µg/mL; IC80 (neutralization in TZM.bl cells) [11]: 5.29 µg/mL; IC50 (neutralization in TZM.bl cells) [12]: 0.034 µg/mL; IC80 (neutralization in TZM.bl cells) [12]: 0.109 µg/mL |
| B8 | 0.013 | 0.047 | 0.702 | 1.79 | 0.111 | 0.467 | 0.203 | 5.38 | 0.076 | 0.27 | 0.229 | 6.26 |  |  |  |  |  |  |  |  |  |
| B9 | 0.009 | 0.033 | 0.59 | 1.9 | 0.088 | 0.369 | 0.102 | 2.36 | 0.067 | 0.245 | 0.109 | 1.6 |  |  |  |  |  |  |  |  |  |
| B10 | 0.014 | 0.047 | 0.739 | 2.5 | 0.123 | 0.548 | 0.371 | 11.7 | 0.079 | 0.299 | 0.238 | 3.67 |  |  |  |  |  |  |  |  |  |
| B11 | 0.015 | 0.052 | 1.02 | 2.63 | 0.101 | 0.588 | 0.125 | 1.59 | 0.057 | 0.282 | 0.147 | 0.917 |  |  |  |  |  |  |  |  |  |
| B12 |  |  |  |  |  |  |  |  |  |  |  |  | 0.285 | 1.03 | 0.178 | 0.802 | 1.76 | 6.27 | 0.029 | 0.093 | IC50 (neutralization in TZM.bl cells) [11]: 0.22 µg/mL; IC80 (neutralization in TZM.bl cells) [11]: 1.31 µg/mL; IC50 (neutralization in TZM.bl cells) [12]: 0.024 µg/mL; IC80 (neutralization in TZM.bl cells) [12]: 0.066 µg/mL |
